Values of other authors in publication PMC8138766.
Like-named read-outs stand apart in the source and are kept apart here.

What was measured:
[1] = target: V-ATPase subunit C (Saccharomyces cerevisiae) (UniProt P31412)
[2] = target: V-ATPase subunit C (Saccharomyces cerevisiae) (UniProt P31412); remark: listed apart in the source

Sequence of V-ATPase subunit C (Saccharomyces cerevisiae) (P31412 2-392): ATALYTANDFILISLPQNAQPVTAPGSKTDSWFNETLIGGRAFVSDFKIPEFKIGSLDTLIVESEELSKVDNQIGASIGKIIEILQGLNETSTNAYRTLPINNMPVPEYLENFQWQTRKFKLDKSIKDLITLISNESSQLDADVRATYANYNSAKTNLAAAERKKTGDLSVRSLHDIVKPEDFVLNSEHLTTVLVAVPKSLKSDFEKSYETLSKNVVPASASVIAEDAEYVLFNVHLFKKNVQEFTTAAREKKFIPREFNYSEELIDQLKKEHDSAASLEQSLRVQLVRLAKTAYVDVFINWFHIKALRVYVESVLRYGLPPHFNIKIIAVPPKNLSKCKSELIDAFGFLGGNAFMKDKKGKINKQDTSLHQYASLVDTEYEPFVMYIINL
Sequence of EG stalk (P22203 2-233): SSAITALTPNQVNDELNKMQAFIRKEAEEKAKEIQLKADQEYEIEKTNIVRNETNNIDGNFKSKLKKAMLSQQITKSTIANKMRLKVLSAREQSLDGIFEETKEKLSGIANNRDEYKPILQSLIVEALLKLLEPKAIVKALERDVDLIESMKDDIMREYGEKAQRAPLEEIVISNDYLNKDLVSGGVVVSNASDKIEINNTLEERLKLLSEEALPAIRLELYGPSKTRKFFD
Sequence of EG stalk (P48836 2-114, further chain): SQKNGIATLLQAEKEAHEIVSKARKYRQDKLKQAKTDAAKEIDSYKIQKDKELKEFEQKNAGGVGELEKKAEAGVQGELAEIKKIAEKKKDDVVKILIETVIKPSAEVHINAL
Sequence of V1 (P17255 2-1071): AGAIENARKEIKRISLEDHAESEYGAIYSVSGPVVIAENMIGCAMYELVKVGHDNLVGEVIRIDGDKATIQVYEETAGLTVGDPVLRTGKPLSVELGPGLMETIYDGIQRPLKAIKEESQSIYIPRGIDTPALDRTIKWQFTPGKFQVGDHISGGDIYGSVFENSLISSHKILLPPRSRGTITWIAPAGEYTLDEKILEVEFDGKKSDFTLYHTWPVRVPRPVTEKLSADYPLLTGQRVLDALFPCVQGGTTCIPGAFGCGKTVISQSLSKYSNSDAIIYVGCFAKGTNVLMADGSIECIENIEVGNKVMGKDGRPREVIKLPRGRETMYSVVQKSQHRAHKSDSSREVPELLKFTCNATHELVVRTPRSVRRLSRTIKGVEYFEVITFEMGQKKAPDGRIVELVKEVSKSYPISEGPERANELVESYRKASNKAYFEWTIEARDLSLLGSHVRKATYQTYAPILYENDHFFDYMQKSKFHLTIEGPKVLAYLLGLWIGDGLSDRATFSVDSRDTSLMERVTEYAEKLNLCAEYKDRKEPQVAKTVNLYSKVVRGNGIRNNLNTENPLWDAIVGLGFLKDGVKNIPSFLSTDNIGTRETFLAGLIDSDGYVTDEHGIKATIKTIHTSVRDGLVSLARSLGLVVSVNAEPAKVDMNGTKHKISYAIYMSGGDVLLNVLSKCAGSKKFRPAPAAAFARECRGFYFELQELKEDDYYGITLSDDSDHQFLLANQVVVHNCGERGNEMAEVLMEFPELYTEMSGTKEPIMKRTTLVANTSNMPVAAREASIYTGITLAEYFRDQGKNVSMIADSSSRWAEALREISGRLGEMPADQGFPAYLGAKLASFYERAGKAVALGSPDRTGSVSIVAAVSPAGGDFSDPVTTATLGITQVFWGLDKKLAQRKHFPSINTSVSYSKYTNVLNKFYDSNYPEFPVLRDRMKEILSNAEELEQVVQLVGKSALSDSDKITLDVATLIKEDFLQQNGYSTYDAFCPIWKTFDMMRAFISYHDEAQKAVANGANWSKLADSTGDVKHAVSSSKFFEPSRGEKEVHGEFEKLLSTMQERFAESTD
Sequence of V1 (P16140 2-517, further chain): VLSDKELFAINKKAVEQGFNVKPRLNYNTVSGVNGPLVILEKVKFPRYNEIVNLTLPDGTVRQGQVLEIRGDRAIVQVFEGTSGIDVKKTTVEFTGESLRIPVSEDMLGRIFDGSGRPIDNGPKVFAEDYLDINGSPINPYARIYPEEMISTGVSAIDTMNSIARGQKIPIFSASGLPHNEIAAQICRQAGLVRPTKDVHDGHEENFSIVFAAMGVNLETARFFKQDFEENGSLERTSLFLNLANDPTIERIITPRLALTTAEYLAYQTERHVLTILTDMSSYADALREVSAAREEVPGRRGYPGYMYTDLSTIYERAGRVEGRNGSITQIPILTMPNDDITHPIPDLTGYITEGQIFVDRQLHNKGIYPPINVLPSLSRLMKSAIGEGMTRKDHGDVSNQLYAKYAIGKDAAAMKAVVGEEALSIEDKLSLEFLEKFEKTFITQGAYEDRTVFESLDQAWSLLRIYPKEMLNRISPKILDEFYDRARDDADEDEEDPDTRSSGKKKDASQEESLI

## EG stalk (from UniProt P22203)
[1]
  Kd: 0.042 µM

## V1 (from UniProt P17255)
[2]
  Kd: 0.0007 µM
